# Assay results published in article PMC12733242, “The Functional Role of Gate Loop Residues in Arrestin Binding to GPCRs” (International Journal of Molecular Sciences, 2025).
# B1: bovine arrestin-1 with deletion of Gly292 (natural protein)
# chain: MKANKPAPNHVIFKKISRDKSVTIYLGKRDYIDHVERVEPVDGVVLVDPELVKGKRVYVSLTCAFRYGQEDIDVMGLSFRRDLYFSQVQVFPPVGASGATTRLQESLIKKLGANTYPFLLTFPDYLPCSVMLQPAPQDVGKSCGVDFEIKAFATHSTDVEEDKIPKKSSVRLLIRKVQHAPRDMGPQPRAEASWQFFMSDKPLRLAVSLSKEIYYHGEPIPVTVAVTNSTEKTVKKIKVLVEQVTNVVLYSSDYYIKTVAAEEAQEKVPPNSSLTKTLTLVPLLANNRERRIALDGKIKHEDTNLASSTIIKEGIDKTVMGILVSYQIKVKLTVSGLLGELTSSEVATEVPFRLMHPQPEDPDTAKESFQDENFVFEEFARQNLKDAGEYKEEKTDQEAAMDE
# modifications: [14C]leucine incorporated
# notes: arrestin-1, bovine; bovine residue numbers; source: cell-free translation, radiolabelled; translation mix after centrifugation
# How the values were obtained:
# [1] = molecular target: T1, phosphorylated light-activated bovine rhodopsin (bovine, UniProt P02699 1-348, phosphorylated by endogenous rhodopsin kinase (GRK1), on average 2.6 phosphates per rhodopsin (sites not determined; the C-terminus has seven phosphorylatable serines and threonines); regenerated …); assay: radioligand binding; direct binding assay: 1 nM [14C]leucine-labelled arrestin-1 (50 fmol) from cell-free translation incubated with 0.3 μg of P-Rh* or Rh* (7.8 pmol) in 50 mM Tris-HCl pH 7.4, 100 mM potassium acetate, 1 mM EDTA, 1 mM DTT, 5 min at 37 °C under room light; bound arrestin separated with rhodopsin-containing membranes by gel filtration on Sepharose CL-2B at 4 °C, scintillation counting; binding in …; details: one partner purified
# T1 construct: rhodopsin, bovine, wild type, in native disk membranes; Native protein; also called P-Rh*
# T1 sequence (P02699 whole entry): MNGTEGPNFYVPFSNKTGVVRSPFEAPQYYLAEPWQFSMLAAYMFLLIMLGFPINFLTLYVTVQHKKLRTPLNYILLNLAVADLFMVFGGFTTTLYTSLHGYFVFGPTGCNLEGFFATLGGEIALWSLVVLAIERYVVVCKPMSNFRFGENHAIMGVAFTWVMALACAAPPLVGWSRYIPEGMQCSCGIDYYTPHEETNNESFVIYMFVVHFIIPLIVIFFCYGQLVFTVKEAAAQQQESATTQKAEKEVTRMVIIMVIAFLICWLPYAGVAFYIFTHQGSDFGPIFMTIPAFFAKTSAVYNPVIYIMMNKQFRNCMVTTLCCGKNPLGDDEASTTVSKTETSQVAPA
# [2] = molecular target: T2, unphosphorylated light-activated bovine rhodopsin (bovine, UniProt P02699 1-348, light-activated); assay: as above; details: one partner purified
# T2 construct: rhodopsin, bovine, wild type, in native disk membranes; Native protein; source: purified bovine rhodopsin in native disk membranes, unphosphorylated
# T2 sequence (P02699 whole entry): as above
binder,measurement,setting,value
B1,increase of binding over WT,[1],38%
same,increase of binding over WT,[2],156%
